The record followed here is article PMC12143593, “Selective engineering of condensation properties of single-stranded DNA binding (SSB) protein via its intrinsically disordered linker region”.

Holding throughout (details): protein: recombinant; tags: N-terminal His6-TEV, removed; chain copies: 4; label: fluorescein
For series [1], the target named is EcSSB d2G (Escherichia coli, UniProt P0AGE0 1-113+131-178, internal_change). The series can be described thus: fluorescence polarization; n = 1.8; 20 mM Tris-acetate pH 8, 50 mM K-glutamate, 10 mM Mg-acetate, 25 C; 10 nM labeled oligo, SSB concentrations as tetramers.
The target of series [2] is EcSSB R116D-W136D (Escherichia coli, UniProt P0AGE0 1-178, R116D;W136D). The description is as above.
The target of series [3] is EcSSB W136D (Escherichia coli, UniProt P0AGE0 1-178, W136D). The series can be described thus: fluorescence polarization; n = 1.7; 20 mM Tris-acetate pH 8, 50 mM K-glutamate, 10 mM Mg-acetate, 25 C; 10 nM labeled oligo, SSB concentrations as tetramers.
Series [4] deals with EcSSB WT (Escherichia coli, UniProt P0AGE0 1-178). Described as above.
Series [5] concerns the target EcSSB d1G (Escherichia coli, UniProt P0AGE0 1-113+121-178, internal_change). The series can be described thus: fluorescence polarization; n = 2.2; 20 mM Tris-acetate pH 8, 50 mM K-glutamate, 10 mM Mg-acetate, 25 C; 10 nM labeled oligo, SSB concentrations as tetramers.

B1: dT79 (ssDNA)
DNA: TTTTTTTTTTTTTTTTTTTTTTTTTTTTTTTTTTTTTTTTTTTTTTTTTTTTTTTTTTTTTTTTTTTTTTTTTTTTTTT
With B1, the Kd in series [1] was 0.011 ± 0.0025 µM; in series [2], under 0.01 µM; in series [3], under 0.01 µM; in series [4] it was under 0.01 µM; in series [5], 0.011 ± 0.0026 µM.
